Laboratory results taken from article PMC3100304, “The Interplay between NF-kappaB and E2F1 Coordinately Regulates Inflammation and Metabolism in Human Cardiac Cells” (PLoS ONE, 2011).

Biological target: T1, p65 subunit of NF-κB (human (endogenous in AC16), UniProt Q04206 1-551)
T1 construct: p65 subunit of NF-κB (RelA), endogenous in human cardiac AC16 cells; precipitated with an anti-p65 antibody; also called RelA/p65; source: endogenous, human cardiac AC16 cells, nuclear extract
Assay: co-IP; AC16 nuclear extracts (25 µg) precipitated with 4 µg anti-p65 and protein A-agarose at 4°C, blotted with anti-E2F1; cells with or without TNF-α (100 ng/ml, 24 h), parthenolide (10 µmol/L), siRNA to p65, or LacZ- or E2F1-carrying plasmids
Conditions: partners not purified

T1 sequence (Q04206 whole entry): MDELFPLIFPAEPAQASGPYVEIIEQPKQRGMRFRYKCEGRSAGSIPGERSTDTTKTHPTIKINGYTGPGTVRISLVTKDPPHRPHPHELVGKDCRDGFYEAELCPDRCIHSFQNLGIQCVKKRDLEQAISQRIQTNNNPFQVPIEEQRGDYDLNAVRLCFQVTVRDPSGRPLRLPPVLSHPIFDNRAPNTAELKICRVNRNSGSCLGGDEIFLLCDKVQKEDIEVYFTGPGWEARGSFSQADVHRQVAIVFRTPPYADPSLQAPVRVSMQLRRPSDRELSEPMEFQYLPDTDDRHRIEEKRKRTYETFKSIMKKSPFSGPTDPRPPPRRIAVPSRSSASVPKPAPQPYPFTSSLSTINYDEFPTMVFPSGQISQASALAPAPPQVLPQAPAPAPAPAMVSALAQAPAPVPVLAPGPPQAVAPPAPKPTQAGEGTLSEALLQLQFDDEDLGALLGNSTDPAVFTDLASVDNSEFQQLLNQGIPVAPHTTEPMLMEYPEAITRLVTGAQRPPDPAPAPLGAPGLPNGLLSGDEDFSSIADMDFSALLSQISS

B1: E2F1 overexpressed from the pSG5L/E2F1 construct (natural protein)
chain: not shown
notes: human E2F1 expressed from the pSG5L/E2F1 construct (human gene, Addgene plasmid 10736); The transfected cells also hold endogenous E2F1; source: AC16 cells, transfected (Lipofectamine 2000), in nuclear extract
- fold of p65-E2F1 association vs. LacZ: 2 fold
- fold of p65-E2F1 association vs. LacZ (with TNF-α): 4 fold
